{"source": "paper PMC11039998", "about": "(Nucleic Acids Research, 2024)", "molecular_target": "Methyl binding domain (MBD) of MeCP2, wild-type (UniProt P51608 90-162)", "sequence (P51608 90-162)": "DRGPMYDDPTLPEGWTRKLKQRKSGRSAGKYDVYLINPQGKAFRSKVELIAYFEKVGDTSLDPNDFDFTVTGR", "assay": "ITC", "note": "Where no end group is shown, it is not given here."}
{"binder": "TKAARK(Me3)SAPAT", "note": "[H3-derived peptide of the K27 region, trimethylated at K27]", "values": [{"measurement": "Kd", "value": 12, "unit": "µM"}]}
{"binder": "Ac-TKAARKSAPAT-NH2", "note": "[H3-derived peptide of the K27 region, wild-type]", "values": [{"measurement": "Kd", "value": 3.4, "unit": "µM"}]}
